Test results from patent US10918700B2, “Lipid-based nanoparticles and use of same in optimized insulin dosing regimens” (SDG, Inc., priority 2019, dated 2021).

Columns and labels:
[1] = test system: type 1 diabetes mellitus (T1DM); experiment: Continuous glucose monitoring results, Good to Great Hypoglycemia study (Table 1); format: in vivo, human
Experimental: A1c, lipids, and liver enzymes were measured approximately monthly. Liver fat content MRIs were performed in a subset.
Safety analyses included all randomized subjects.
Table 1 summarizes continuous glucose monitoring results in the Good to Great Hypoglycemia study, in terms of increased HDV-related hypoglycemia events.

[2] = test system: type 1 diabetes mellitus (T1DM); experiment: ISLE-1 26-week Phase 2b randomized double-blind trial: A1c; format: in vivo, human; details: ITT, 26 weeks
Experimental: ISLE-1 was a 26-week, Phase 2b, multicenter, randomized, double-blind, non-inferiority trial.
(§1) ISLE-1 was a 26-week, Phase 2b, multicenter, randomized, double-blind, trial in T1DM treated with multiple daily injections (MDI) of insulin.
Main exclusion criteria were total insulin dose ≥1.5 IU/kg/day or NPH insulin as basal.
Prandial dosing of HDV-lispro or control lispro was 15 minutes prior to the meal, and basal insulins were administered either as a single daily dose or a divided twice per day dosing, every 12 hours.
(§2) Informed of ˜10% dilution, participants continued their current insulin parameters. Hypoglycemia was recorded on Case Report Forms (CRFs) based on subject diaries and SMBG records, subjectively investigator-judged as “mild,” “moderate,” “severe,” or “life threatening.” Blinded continuous glucose monitoring (CGM) (Dexcom G4) was used for 5-7 days to assess glucose at baseline, weeks 13 and 26. A1c, lipids, and liver enzymes were measured approximately monthly. Liver fat content MRIs were performed in a subset.
The intent to treat (ITT) population included all randomized subjects receiving at least one dose of study treatment. Safety analyses included all randomized subjects. […] Mean A1c change was analyzed using ANCOVA within intent-to-treat (ITT) cohort at each visit. […]

[3] = test system: type 1 diabetes mellitus (T1DM); experiment: ISLE-1: hypoglycemia (CRF-reported and blinded CGM)
Experimental: as §1, §2
The intent to treat (ITT) population included all randomized subjects receiving at least one dose of study treatment. Safety analyses included all randomized subjects. […] Mean A1c change was analyzed using ANCOVA within intent-to-treat (ITT) cohort at each visit. […] Poisson regression models adjusting for site as random effect compared “severe” hypoglycemia incidence rates within A1c groups, testing for baseline A1c by treatment group interaction. Event number/subject was truncated at 15, accounting for extreme outliers.

[4] = test system: type 1 diabetes mellitus (T1DM); experiment: ISLE-1: lipids, liver enzymes, liver fat MRI, adverse events; format: in vivo, human; details: over study
Experimental: as §1, §2
The intent to treat (ITT) population included all randomized subjects receiving at least one dose of study treatment. Safety analyses included all randomized subjects. […] Mean A1c change was analyzed using ANCOVA within intent-to-treat (ITT) cohort at each visit. […] Direct likelihood models were used for treatment arm A1c comparisons, % time <54 mg/dL, bolus insulin, and basal insulin within the two A1c subgroups. Poisson regression models adjusting for site as random effect compared “severe” hypoglycemia incidence rates within A1c groups, testing for baseline A1c by treatment group interaction. Event number/subject was truncated at 15, accounting for extreme outliers.

type 1 diabetes (T1D) = experiment: Example 3, 6-month open label study: insulin dosing, A1C, mean daily glucose, weight; format: in vivo, human; details: 61 enrollees, mean baseline A1C 7.3
Source text: Subcutaneous (SC) insulin is non-physiologic, since pancreatic insulin goes first to the liver. The present study was designed to determine whether delivery of Hepatic Directed Vesicles (HDV) admixed with lispro/HUMALOG® (HDV-L) decreases hypoglycemia in well controlled patients on multiple daily injections (MDI) with type 1 diabetes (T1D) using unblinded Dexcom G6 continuous glucose monitoring (CGM).
This study was a 6-month (mo) open label study of prandial insulin (lispro, 3 mo, then HDV-L, 3 mo) with basal insulin degludec (TRESIBA®) and unblinded continuous glucose monitoring (CGM) in T1D with baseline A1C 6.5-8.5%. Insulin dosing, hypoglycemia, and daily glucose control were among the monitored parameters.
In this study the target fasting blood glucose was 80-100 mg/dL. At 3 mo subjects were randomized to −10% or −40% basal dose to encourage titration with HDV-L. Physicians titrated basal insulin weekly. A hypoglycemic event was defined as ≥15 min of CGM≤54 mg/dL.

insulin lispro was tested, and the “% Time <54 mg/dL, median” value ([1]; Baseline) was 2.1%, the “% Time <70 mg/dL, median” value ([1]; Baseline) was 5.8% and the “Area above curve <54 mg/dL, median” value ([1]; Baseline) was 0.1. The “Area above curve <70 mg/dL, median” value ([1]; Baseline) was 0.9, the “% Time <54 mg/dL, median” value ([1]; Endpoint) was 1.7% and the “% Time <70 mg/dL, median” value ([1]; Endpoint) was 5.6%. The “Area above curve <54 mg/dL, median” value ([1]; Endpoint) was 0.1, the “Area above curve <70 mg/dL, median” value ([1]; Endpoint) was 0.7 and the “Mean change in A1c baseline to Week 26” value [2] was −0.16%. For the same substance, the “CRF-reported incidence of "severe" hypoglycemia” value ([3]; baseline A1c<8.5%) was 21 events/100 person-years, the “time <54 mg/dL during Week 26 (median)” value ([3]; baseline A1c<8.5%, CGM) was 0.6% and the “CRF-reported incidence rate of "severe" hypoglycemia” value ([3]; baseline A1c≥8.5%) was 97 events/100 person-years. For the same substance, the “percentage time <54 mg/dL during Week 26 (median)” value ([3]; baseline A1c≥8.5%, CGM) was 2.6%, the “change in total cholesterol” value [4] was 7.3 mg/dL and the “A1C after 3 mo optimization” value (type 1 diabetes (T1D)) was 6.9%.
